Data on 1 molecule can be found in PMC12397275 (Nature Communications, 2025).

This assay concerns the target T1, 670-689 VP3 peptide (rhesus rotavirus RRV strain).
T1 construct: source: synthetic peptide (Gencript)
Description: BLI. The note with it: both partners purified.

B1: PFDN3 protein (His tag removed) (natural protein)
chain: MAAVKDSCGKGEMATGNGRRLHLGIPEAVFVEDVDSFMKQPGNETADTVLKKLDEQYQKYKFMELNLAQKKRRLKGQIPEIKQTLEILKYMQKKKESTNSMETRFLLADNLYCKASVPPTDKVCLWLGANVMLEYDIDEAQALLEKNLSTATKNLDSLEEDLDFLRDQFTTTEVNMARVYNWDVKRRNKDDSTKNKA
notes: also called non-Tagged PFDN3; human PFDN3; source: bought: Abcam (ab139201), His tag cleaved with thrombin
For the molecule B1, the binding result is reported as “binds”.
